Values quoted from earlier work, collected in article PMC9542338.
Like-named read-outs stand apart in the source and are kept apart here.

What was measured:
CD155 (Homo sapiens) [1] = target: CD155 (Homo sapiens) (UniProt P15151)
CD155 (Homo sapiens) [2] = target: CD155 (Homo sapiens) (UniProt P15151); remark: listed apart in the source

UniProt P15151, sequence (P15151 21-343): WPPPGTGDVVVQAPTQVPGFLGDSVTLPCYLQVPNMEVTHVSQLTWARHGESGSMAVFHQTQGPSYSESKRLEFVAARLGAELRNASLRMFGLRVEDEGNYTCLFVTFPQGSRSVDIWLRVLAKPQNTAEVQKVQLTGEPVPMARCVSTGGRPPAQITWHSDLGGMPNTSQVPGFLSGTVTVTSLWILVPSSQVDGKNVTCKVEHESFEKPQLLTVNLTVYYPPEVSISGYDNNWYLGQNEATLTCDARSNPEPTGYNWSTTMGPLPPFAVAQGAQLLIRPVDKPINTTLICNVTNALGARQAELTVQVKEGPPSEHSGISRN

Substance | Kd (CD155 (Homo sapiens) [1]) [nM] | Kd (CD155 (Homo sapiens) [2]) [nM]
CD226 (from UniProt Q15762) | 115 | –
TIGIT (from UniProt Q495A1) | – | 2
